Measurements reported in paper PMC11980593.

Target: hexahistidine-tagged VapD toxin from Campylobacter jejuni (VapD^Cje) (Campylobacter jejuni)
Assay: crystal structure; co-expressed and co-purified VapD-VapW complex; sitting drop at 20°C, 20% PEG 1000, 100 mM sodium phosphate dibasic/citric acid pH 4.2, 200 mM lithium sulfate; space group C 2 2 21; 1.95 Å

Work on “strep-tagged VapW antitoxin from Campylobacter jejuni (VapW^Cje) (natural protein)” yielded a stoichiometry N (VapD per VapW (2:2)) of 1.
